For this assay, the target named is gp41 of HIV-1 strain HXB2D with mutation V38A (HIV-1 strain HXB2D, UniProt P04578). Put plainly: cell-based or functional assay.

Starred links: 1 amine or outer side, 2 acyl side, 3 side chain; linkers in the order of their positions; H or OH if unused. Positions of bridges follow the written chain, without caps; N, C: chain ends. Non-standard residues stand in square brackets, D forms with d. *: point of attachment. pXylylene = c1cc(C[*:2])ccc1C[*:1]; Suc = O=C(CCC(=O)[*:2])[*:1]; Nva = CCC[C@H](N)C(=O)O; Abu = CC[C@H](N)C(=O)O; Hexanoyl = CCCCCC(=O)*; Pentanoyl = CCCCC(=O)*; B1 = not defined here; Butyryl = CCCC(=O)*

B1: peptide 52 (peptide)
peptide: Pentanoyl-ENYLALIEELIRKAQEQQEKNEAALR-NH2
SMILES: CCCCC(=O)N[C@@H](CCC(=O)O)C(=O)N[C@@H](CC(N)=O)C(=O)N[C@@H](Cc1ccc(O)cc1)C(=O)N[C@@H](CC(C)C)C(=O)N[C@@H](C)C(=O)N[C@@H](CC(C)C)C(=O)N[C@H](C(=O)N[C@@H](CCC(=O)O)C(=O)N[C@@H](CCC(=O)O)C(=O)N[C@@H](CC(C)C)C(=O)N[C@H](C(=O)N[C@@H](CCCNC(=N)N)C(=O)N[C@@H](CCCCN)C(=O)N[C@@H](C)C(=O)N[C@@H](CCC(N)=O)C(=O)N[C@@H](CCC(=O)O)C(=O)N[C@@H](CCC(N)=O)C(=O)N[C@@H](CCC(N)=O)C(=O)N[C@@H](CCC(=O)O)C(=O)N[C@@H](CCCCN)C(=O)N[C@@H](CC(N)=O)C(=O)N[C@@H](CCC(=O)O)C(=O)N[C@@H](C)C(=O)N[C@@H](C)C(=O)N[C@@H](CC(C)C)C(=O)N[C@@H](CCCNC(=N)N)C(N)=O)[C@@H](C)CC)[C@@H](C)CC
B1: the “fold change in EC50, HIV-HXB2D V38A mutant” value (from here on “fold change in EC50”) stood at 5 fold.
For Suc-ACYLACIEALIRA[Nva]QEQQEKNEAALR-NH2 (linker 2-6 via B1; reading uncertain) [peptide 46], the “fold change in EC50” value came out at 6 fold.

B2: peptide 1 (peptide)
peptide: Suc-ANYLALIEALIRAAQEQQEKNEAAL-NH2
SMILES: CC[C@H](C)[C@H](NC(=O)[C@H](CC(C)C)NC(=O)[C@H](C)NC(=O)[C@H](CCC(=O)O)NC(=O)[C@@H](NC(=O)[C@H](CC(C)C)NC(=O)[C@H](C)NC(=O)[C@H](CC(C)C)NC(=O)[C@H](Cc1ccc(O)cc1)NC(=O)[C@H](CC(N)=O)NC(=O)[C@H](C)NC(=O)CCC(=O)O)[C@@H](C)CC)C(=O)N[C@@H](CCCNC(=N)N)C(=O)N[C@@H](C)C(=O)N[C@@H](C)C(=O)N[C@@H](CCC(N)=O)C(=O)N[C@@H](CCC(=O)O)C(=O)N[C@@H](CCC(N)=O)C(=O)N[C@@H](CCC(N)=O)C(=O)N[C@@H](CCC(=O)O)C(=O)N[C@@H](CCCCN)C(=O)N[C@@H](CC(N)=O)C(=O)N[C@@H](CCC(=O)O)C(=O)N[C@@H](C)C(=O)N[C@@H](C)C(=O)N[C@@H](CC(C)C)C(N)=O
Take B2: the “fold change in EC50” value worked out at 57 fold.
Then Butyryl-ECYLACIEELIRKAQEQQEKNEAALR-NH2 (linker 2-6 via B1; reading uncertain) [peptide 40], with 3 fold.

B3: peptide 50 (peptide)
peptide: Ac-ECYLRCIEALIRAAQEQQEKNEAALR-NH2
modifications: linker 2-6 via pXylylene
SMILES: CC[C@H](C)[C@H](NC(=O)[C@H](CC(C)C)NC(=O)[C@H](C)NC(=O)[C@H](CCC(=O)O)NC(=O)[C@@H](NC(=O)[C@@H]1CSCc2ccc(cc2)CSC[C@H](NC(=O)[C@H](CCC(=O)O)NC(C)=O)C(=O)N[C@@H](Cc2ccc(O)cc2)C(=O)N[C@@H](CC(C)C)C(=O)N[C@@H](CCCNC(=N)N)C(=O)N1)[C@@H](C)CC)C(=O)N[C@@H](CCCNC(=N)N)C(=O)N[C@@H](C)C(=O)N[C@@H](C)C(=O)N[C@@H](CCC(N)=O)C(=O)N[C@@H](CCC(=O)O)C(=O)N[C@@H](CCC(N)=O)C(=O)N[C@@H](CCC(N)=O)C(=O)N[C@@H](CCC(=O)O)C(=O)N[C@@H](CCCCN)C(=O)N[C@@H](CC(N)=O)C(=O)N[C@@H](CCC(=O)O)C(=O)N[C@@H](C)C(=O)N[C@@H](C)C(=O)N[C@@H](CC(C)C)C(=O)N[C@@H](CCCNC(=N)N)C(N)=O
As for B3, the “fold change in EC50” value was found to be 12 fold.
For Ac-ECYLACIEALIRAAQEQQEKNEAALR-NH2 (linker 2-6 via B1; reading uncertain) [peptide 45], the “fold change in EC50” value came out at 14 fold.
As to Suc-ACYLACIEALIRAAQEQQEKNEAALR-NH2 (linker 2-6 via B1; reading uncertain) [peptide 43], the “fold change in EC50” value came out at 19 fold.
Then Suc-ACY[Nva]ACIEALIRAAQEQQEKNEAALR-NH2 (linker 2-6 via B1; reading uncertain) [peptide 44], with 15 fold; and Ac-ACYLACIEALIRKAQEQQEKNEAALR-NH2 (linker 2-6 via B1; reading uncertain) [peptide 48], with 10 fold.
In the case of Suc-ACY[Abu]ACIEALIRAAQEQQEKNEAALR-NH2 (linker 2-6 via B1; reading uncertain) [peptide 49], the “fold change in EC50” value worked out at 33 fold.
With Pentanoyl-ECYLACIEELIRKAQEQQEKNEAALR-NH2 (linker 2-6 via B1; reading uncertain) [peptide 41], the “fold change in EC50” value was determined as 2 fold.
Then Suc-ACYLACIEALIRA[Abu]QEQQEKNEAALR-NH2 (linker 2-6 via B1; reading uncertain) [peptide 47], with 17 fold.

B4: peptide 51 (peptide)
peptide: Ac-ACYLACIEALIRRAQEQQEKNEAALR-NH2
modifications: linker 2-6 via pXylylene
SMILES: CC[C@H](C)[C@H](NC(=O)[C@@H]1CSCc2ccc(cc2)CSC[C@H](NC(=O)[C@H](C)NC(C)=O)C(=O)N[C@@H](Cc2ccc(O)cc2)C(=O)N[C@@H](CC(C)C)C(=O)N[C@@H](C)C(=O)N1)C(=O)N[C@@H](CCC(=O)O)C(=O)N[C@@H](C)C(=O)N[C@@H](CC(C)C)C(=O)N[C@H](C(=O)N[C@@H](CCCNC(=N)N)C(=O)N[C@@H](CCCNC(=N)N)C(=O)N[C@@H](C)C(=O)N[C@@H](CCC(N)=O)C(=O)N[C@@H](CCC(=O)O)C(=O)N[C@@H](CCC(N)=O)C(=O)N[C@@H](CCC(N)=O)C(=O)N[C@@H](CCC(=O)O)C(=O)N[C@@H](CCCCN)C(=O)N[C@@H](CC(N)=O)C(=O)N[C@@H](CCC(=O)O)C(=O)N[C@@H](C)C(=O)N[C@@H](C)C(=O)N[C@@H](CC(C)C)C(=O)N[C@@H](CCCNC(=N)N)C(N)=O)[C@@H](C)CC
B4: the “fold change in EC50” value stood at 10 fold.
For the molecule Hexanoyl-ECYLACIEELIRKAQEQQEKNEAALR-NH2 (linker 2-6 via B1; reading uncertain) [peptide 42], the “fold change in EC50” value worked out at 2 fold.

These data come from patent US20140357577A1, “HIV Membrane Fusion Inhibitors” (priority 2011, published 2014).
